Data published in patent publication US20240400621A1, “PEPTIDES FOR METABOLIC SYNDROME” (ALPARIS, S.A. de C.V., priority 2021, published 2024).

Columns and labels:
[1] = Body weight of mice on high-fat diet (DAG) with intragastric peptide for 12 weeks; type: in vivo, mice (C57BL/6JN)
Description: (§1) For all the in vivo testing, male mice of the C57BL/6JN strain between 8 to 10 weeks of age were used, housed in groups of 3 to 5 mice per cage with food and water ad libitum in ventilated racks, and whose microbiota were unified for 4 weeks.
(§2) The mice received either 200 μL of a phosphate buffer solution (PBS) at pH 7.5 (as a vehicle), or 200 μL of the PBS solution, with each of the intragastric treatments daily for 12 weeks. They were fed either a Normal Diet (DN, Harlan, Teklad 2018SX) with 18% of the calories coming from fat, or a High-Fat Diet (DAG, Research Diets, D12491), with 60% of the calories coming from fat.
(§3) All the mice were randomly divided into five experimental groups in order to study the effect of SEQ ID NO: 3 and SEQ ID NO: 2 correctly: • Group 1—Mice with DN that received 200 μl of PBS intragastrically. • Group 2—Mice with DAG that received 200 μl of PBS intragastrically. • Group 3—Mice with DAG that received 200 μl of PBS with SEQ ID NO: 3 intragastrically at a dose of: 2.5 μg/mouse. • Group 4—Mice with DAG that received 200 μl of PBS with SEQ ID NO: 2 intragastrically at a dose of 0.6 μg/mouse (high dose). • Group 5—Mice with DAG that received 200 μl of PBS with SEQ ID NO: 2 intragastrically at a dose of 0.2 μg/mouse (low dose).
The animal weights and feed intakes were recorded weekly.
To determine the metabolic status of the animals before starting the experiment, weight, basal glucose levels, glucose tolerance, and insulin resistance were recorded.

mice fed a high-fat diet [2] = test: Glucose tolerance test (GTT) in mice fed a high-fat diet; type: in vivo, mice (C57BL/6JN); conditions: 12 weeks; intragastric daily; SEQ ID NO: 3 2.5 μg/mouse, SEQ ID NO: 2 0.6 or 0.2 μg/mouse
Description: as §1
as §2, with “fat. […]” for “fat.”
The mice were subjected to fasting for 6 hours, and the baseline glucose values in the blood were determined using glucose test strips and a glucometer (Roche's ACCU-CHECK ACTIVE).
Next, the mice received an intraperitoneal injection of 1.8 mg of glucose per gram of body weight, and the blood glucose values were recorded at 15, 30, 60, and 120 minutes after administration.
FIGS. 19A and 19B show the area under the curve (AUC) of the glucose tolerance test of the mice, measured at week 0 and 12.

mice fed a high-fat diet [3] = test: Insulin resistance test (PRI) in mice fed a high-fat diet; type: in vivo, mice (C57BL/6JN); conditions: 12 weeks; intragastric daily; SEQ ID NO: 3 2.5 μg/mouse, SEQ ID NO: 2 0.6 or 0.2 μg/mouse
Description: as §1
as §2, with “fat. […]” for “fat.”
The mice were subjected to fasting for 6 hours and the baseline glucose values were determined, as described above. Subsequently, the mice received an intraperitoneal injection of 1 mU of insulin per gram of body weight, and blood glucose values were recorded at 15, 30, 60, and 120 minutes after administration. The area under the curve (AUC) of the insulin resistance test was calculated considering the glucose decrease between time T0 and T15 using the absolute glucose values, as shown in FIGS. 20A and 20B.

insulin = test: Insulin levels (secretion in response to glucose) in mice fed a high-fat diet; type: in vivo, mice (C57BL/6JN); conditions: 12 weeks; versus DAG group
Description: as §1, §2, §3
This means that the peptide SEQ ID NO: 3 improves insulin sensitivity, preventing insulin resistance from developing.

adipose tissue = test: Cellular infiltrate / inflammatory process in adipose tissue of mice fed a high-fat diet; type: in vivo, mice (C57BL/6JN)
Description: as §1, §2, §3
(§4) To determine the effect of the peptides SEQ ID NO: 2 and SEQ ID NO: 3 in attenuating the inflammatory process in adipose tissue, the cellular infiltrate of the adipose tissue of the mice was quantified after they had been fed DAG.

IL-1B = test: Circulating IL-1B levels in mice fed a high-fat diet; type: in vivo, mice (C57BL/6JN); conditions: 12 weeks; versus DAG; including SEQ ID NO: 2 at low doses
Description: as §1
as §2, with “fat. […]” for “fat.”
as §4

TNFα = test: Circulating TNFα levels in mice fed a high-fat diet; type: in vivo, mice (C57BL/6JN); conditions: 12 weeks; versus DAG; including SEQ ID NO: 2 at low doses
Description: as §1
as §2, with “fat. […]” for “fat.”
as §4

IL-6 = IL-6 levels in mice fed a high-fat diet; type: in vivo, mice (C57BL/6JN); conditions: 12 weeks; animals fed DAG
Description: as §1, §2, §3

[4] = Aggregation during ultrafiltration / buffer change; type: physicochemical
Description: The protein of SEQ ID NO. 1, expressed in recombinant form in this invention, contains a tag of six residues of histidine at the carboxyl terminal end, allowing it to be purified by immobilized metal cation affinity chromatography (IMAC). Purification was initially evaluated with the soluble fractions of the two strains that were used for recombinant production, obtained by enzymatic lysis and sonication. The first approach with the Ni-NTA Agarose resin allowed for the recovery of 6% of the SEQ ID NO. 1 with a purity of 50-80%. An FPLC Ákta Prime chromatographic system and an XK16/20 column packed with 13 mL of Chelating Sepharose Fast Flow-Ni^+2 resin were used for purification. A minimum imidazole concentration of 30 mM was defined in both the sample to be injected and the equilibrium buffer. Elution was performed with 500 mM imidazole at 6.5 mL/min, resulting in a minimum recovery of 80% of SEQ ID No. 1 with 82% purity. The ultrafiltration of the tangential flow of SEQ ID NO. 1 during the chromatography stage, in order to concentrate and change the buffer, negatively impacted protein quality. However, the dialysis of EQ ID NO.
However, the aggregation of SEQ ID NO. […] This was corroborated by the SDSPAGE analysis, in which the remaining protein in the soluble fraction presented fragments of lower molecular weight than that of SEQ ID NO. 1, but greater than 25 kDa. On the other hand, the precipitate turned out to be denatured SEQ ID NO. 1, but not degraded.
Finally, SEQ ID NO. 4 and SEQ ID NO.

B1: peptide SEQ ID NO: 3 (carboxyl terminal domain of SEQ ID NO: 1) (peptide)
chain: QLPIETPANNPEESDEADQAPWTPMPLEIAFQGDRESVLKAMNAITGMQDYLFTVNSIRIRNERMMPPPIANPAAAKPAAAQPATGAASLTPADEAAAPAAPAIQQVIKPYMGKEQVFVQVSLNLVHFNQPKAQEPSED
[1]; 0 weeks (initial state), DAG + SEQ ID NO: 3 group
  Average weight: 21.4 grams
[1]; 12 weeks, DAG + SEQ ID NO: 3, 2.5 μg/mouse intragastric daily
  Average weight: 37.9 grams
Mice fed a high-fat diet [2]
  glucose tolerance (AUC of GTT) versus DAG group: improved glucose tolerance
Mice fed a high-fat diet [3]
  insulin sensitivity (AUC of insulin resistance test) versus DAG group: improve insulin sensitivity
insulin
  insulin secretion in response to glucose administration: statistically significant reduction in insulin secretion
Adipose tissue; 12 weeks, versus DAG group
  cellular infiltrate of adipose tissue: prevented the increase in cellular infiltrate induced by DAG
Adipose tissue; SEQ ID NO:2 in high or low doses
  inflammatory process in adipose tissue: attenuate the inflammatory process in adipose tissue
IL-1B
  circulating levels of IL-1B: prevented the increase in the circulating levels of IL-1B
TNFα
  circulating levels of TNFα: prevented the increase in the circulating levels
IL-6
  IL-6 levels: dramatic decrease in IL-6 levels
[4]
  aggregation in ultrafiltration operations: no visible aggregation
